Measured values: US20230332166A1, “FORMATE-INDUCIBLE PROMOTERS AND METHODS OF USE THEREOF” (Imperial College Innovations Ltd, priority 2020, published 2023)

System: Y. lipolytica JMY2900
Assay: qPCR of putative FDH gene transcription upon induction with sodium formate
Type: cell-based, Yarrowia lipolytica
Conditions: YNB with 0.5% sodium formate, 6 h, 28° C., vs absence of formate; qPCR normalised to actin
Description: FIG. 3: Transcription levels of the FDH genes of Yarrowia lipolytica W29 measured by qPCR, normalised to actin (ACT1) expression. Yarrowia lipolytica was grown in YNB supplemented with 1% glucose and 0.5% yeast extract at 15 h at 28° C., before being washed and transferred into YNB with 0.5% of sodium formate for induction and grown for 6 h.
The inducibility of the putative FDH genes with formate was then tested by qPCR. YALI0E14256g1_1 and the nine putative FDH with the highest % identity to YALI0E14256g1_1 were selected for testing. Y. lipolytica JMY2900 was cultured in YNB media supplemented with 1% glucose and 0.5% yeast extract for 15 h at 28° C. Cells were washed with distilled water and cultured in fresh liquid YNB media supplemented with 0.5% sodium formate at 28° C. with agitation at 160 rpm, before being harvested at 6 h post-inoculated. Cells were frozen in liquid nitrogen and stored at −80° C. RNA was subsequently extracted using the RNeasy Mini Kit (Qiagen), and 2 μg was treated with DNAse (Ambion; Life Science Technologies, Saint-Aubain, France). cDNA was synthesised using the Maxima First Strand cDNA synthesis kit (Thermo Fischer Scientific, Villebon sur Yvette, France). qPCR was then performed using the SYBRgreen mastermix (Thermo Fischer Scientific) with gene-specific primers designed using Primer3 software. Relative expression levels were calculated using ΔCT and ΔΔCT methods. Expression levels were normalised to actin.

B1: Yali0F13937: putative Y. lipolytica FDH gene; promoter region SEQ ID NO: 6 (1 Kb) and 22 (1.5 Kb) (nucleic acid, listed as Yarrowia lipolytica)
DNA: ATGAAGGTCCTTCTTATTCTCTATGATGCCGGCTCTCACGCTAAGGATGAGCCCAAGCTCCTTGGATGCACCGAGAACGAGCTCGGTATCCGAGACTGGCTCGAGTCTCAGGGCCATACTCTCGTTACCACCTCTTCCAAGGATGGCGCCGACTCTGTGCTTGACAAGGAGATTGTTGACGCCGATGTAGTCATCACTACCCCCTTCCACCCTGGCTACATCAACAAGGAGCGAATCGACAAGGCCAAGAAGCTCAAGATCTGCATCACTGCCGGTGTGGGCTCGGACCACGTTGATCTCGATGCTGCCAACGCTCGAGATATCGCTGTTCTGGAAGTCACTGGTTCTAATGTCCAGTCCGTCGCTGAGCATGTTGTCATGACTATGCTCGTTCTGGTCCGAAACTTTGTCCCCGCCCACGAGCAAATCATCTCTGGCGGCTGGGATGTTGCTGCTGTCGCCAAGGACTCCTACGATCTCGAGGGTAAGGTCATCGGTACCGTTGGTGGCGGCCGAATCGGCCAGCGTGTCCTCAAGCGATGCAAGCCCTTCGACCCCATGGAAATGCTCTACTACGACTACCAGCCCATGCCTGCCGACGTCGAAAAGGAGATTGGTTGCCGACGAGTTGAGTCTCTGGAGGAGATGCTCTCTCTGTGTGATGTCGTGACCATCAATTGCCCTCTGCACGCCTCCACCAAGGGCCTCTTCAACAAGGAGCTCATCTCGCACATGAAGAATGGTGCTTGGCTCGTCAACACTGCTCGAGGAGCCATCTGCGTTACCGAGGACATTGTCGAGGCACTCGAGTCCGGCAAGATGCGAGGATACGGTGGTGATGTCTGGTTCCCCCAGCCTGCCCCCAAGGACCATCCCTGGAGAACCATGCGAAACAAGTACGGTGGTGGAAACGCCATGACTCCTCATATCTCTGGCACTTCCATCGATGCCCAGGGCCGATACGCCGAGGGAACAAAGAAGATCCTCGAGGTCTTCTTCTCTGGCAAGCAGGATTACCGACCCCAGGACATTATCTGCATCAACGGTCACTACGGTACCAAGGCTTACGGTGACGACAAGGAGCACAAGGAGCACCAGCTTAAGTAAACATTTTTATAGTAACATCTCATTTTGT
modifications: YALI0F13937g
Fold increase on induction (fold change expression of putative FDH genes upon induction with sodium formate): 38.6 fold

B2: Yali0B22506: putative Y. lipolytica FDH gene; promoter region SEQ ID NO: 4 (1 Kb) and 20 (1.5 Kb) (nucleic acid, listed as Yarrowia lipolytica)
DNA: ATGAAGATTCTCCTTATCCTTTACGACGCCGGCTCCCACGCTGCTGACGAACCCAAGCTGCTAGGTTGCACCGAGAACGAGCTCGGCATCCGATCCTGGCTCGAGTCCCAGGGCCATACCCTGGTCACCACCTCTTCCAAGGAGGGTGCTGACTCTGTTCTCGACAAGGAGATTGTTGATGCCGATGTTGTCATCACCACTCCCTTCCACCCCGGCTACATCACCCGAGAGCGAATTGCCAAGGCCAAGAACCTCAAGATCTGTGTCACTGCCGGTGTTGGCTCTGACCACGTTGATCTTGCTGCCGCCAACGAGAGAAACATTGCCGTGCTCGAGGTCACTGGTTCCAACGTGACTTCTGTTGCTGAGCACGTTGTCATGACCATGCTTGTTCTTGTCCGAAACTTCGTGCCTGCCAACGAGCAGGTTCGAGGCGGCGGCTGGGACGTTGCCGGTGTTGCCAAGGATTCCTACGATATTGAGGGTAAGGTCATTGGTACCGTCGGAGTCGGCCGAATCGGCAAGCGAGTGCTCCAGCGACTCAAGCCCTTCGACCCCAAGGAGCTGCTCTACTACGACTATCAGCCTCTGTCTGCTGCCGACGAGAAGGAGATTGGCGCCCGACGAGTTGAGAAGCTCGAGGACATGCTTGCCCAGTGTGATGTTGTCACCATCAACTGCCCCCTGCACGAATCCACCAAGGGTCTCTTTAACAAGGAGCTGCTGTCCCACATGAAGAAGGGCGCCTGGCTCGTCAACACCGCTCGAGGAGCCATCTGTGTAAAGGAGGACGTTGCCGCCGCTCTCAAGTCTGGTCAGCTCCGAGGCTACGGCGGAGATGTCTGGTTCCCCCAGCCTGCCCCTGCTGACCACCCCTGGAGAAAGATGGTCAACAAGTACGGTGCCGGTAACGCCATGACCCCCCACATGTCTGGAACCTCTCTGGACGCCCAGGCCCGATACGCTGCTGGTGTCAAGCAGATTCTCGACGAGTTCTTCTCCGGCCGAGAACAGTACCGACCCCAGGACATTATCTGCTACGGTGGTAACTACGGCACCAAGGCCTACGGAGACGACAAGAAGGTCGTCGACAAGAAGTAATCCGTCCAACGTTCTTCTCAGCGCACAGGTACCTATACTACTGGTAGTATCAGGTTAAACCTCTTTTAGTTTAATGATAAGATAAGATAACATACCGT
modifications: YALI0B22506g
Fold increase on induction (fold change expression of putative FDH genes upon induction with sodium formate): 2.9 fold

B3: Yali0B19976: putative Y. lipolytica FDH gene; promoter region SEQ ID NO: 9 (1 Kb) and 25 (1.5 Kb) (nucleic acid, listed as Yarrowia lipolytica)
DNA: ATGAAGGTCCTTCTTGTTCTCTACGACGCCGGCTCCCACGCCAAGGATGAGCCCAAGCTACTTGGATGCACTGAAAACGAGCTCGGTATCCGAGACTGGCTCGAGTCCCAGGGCCATACCCTGGTAACTACCTCTTCTAAGGATGGCGCCGACTCCGTTCTCGACAAGGAGATTGTTGATGCCGATGTTGTCATCACTACCCCCTTCCATCCCGGTTACATCAACAAGGAGAGAATTGACAAGGCCAAGAAGCTCAAGATCTGTATCACTGCCGGTGTTGGTTCTGACCATGTCGATCTAGATGCCGCCAACGCCCGAGACATTGCTGTCCTTGAAGTCACTGGCTCCAACGTTCAGTCGGTCGCTGAGCATGTTGTCATGACCATGCTTGTTCTGGTCAGAAACTTCGTCCCTGCTCATGAGCAGATCATTTCTGGTGGCTGGGACGTTGCCGCTGTCGCCAAGGACTCTTACGACCTAGAGGGTAAGGTCATTGGTACAGTTGGAGGTGGGCGAATCGGTCAGCGAGTCCTCAAGCGATGCAAGCCCTTCGACCCCATGGAGATGCTCTACTACGACTACCAGCCCATGCCCGCTGATGTCGAGAAGGAGATTGGCTGTCGACGAGTGGAGTCTCTCGAGGAGATGCTCTCTCTCTGTGACGTTGTCACCATCAACTGTCCTCTGCACGCCTCCACCAAGGGCCTCTTCAACAAGAAGCTCATCTCCCACATGAAGGATGGCGCCTGGCTCGTCAACACCGCTCGAGGAGCTATTTGTGTCACTGAGGACATTGTTGAGGCTCTCGAGTCCGGAAAGATTCGAGGCTACGGTGGTGATGTCTGGTTCCCTCAGCCCGCCCCAAAGGACCACCCCTGGAGAACAATGCGAAACAAGTACGGTGGAGGAAACGCCATGACCCCTCATATCTCTGGTACTTCTATTGATGCCCAAGGCCGATACGCTGAGGGCACCAAGAAAATCCTTGAGGTCTTCTTCTCAGGAAAGCAAGACTACCGACCCCAGGATATCATCTGTATCAACGGTCACTACGGTACCAAGGCTTACGGTGACGACAAGGAGCACAAGGAGCACAAGGAGCACGAGGTCAAATAAGCTATCAGCTCTATAGTACTGTACAGTAGGTACAATAGGATCTTGATATTACAGT
modifications: YALI0B19976g
Fold increase on induction (fold change expression of putative FDH genes upon induction with sodium formate): 11.4 fold

B4: Yali0E15840: putative Y. lipolytica FDH gene; promoter region SEQ ID NO: 10 (1 Kb) and 26 (1.5 Kb) (nucleic acid, listed as Yarrowia lipolytica)
DNA: ATGAAGGTCCTTCTTGTTCTTTACGATGCTGGCTCTCACGCTGCTGACGAGCCCAAGCTCCTTGGATGCACCGAAAACGAGCTCGGTATCCGAGACTGGCTCGAGTCCCAGGGCCACACGCTTGTCACCACCTCTTCCAAGGATGGCGCCGACTCTGTGCTCGACAAGGAAATTGTTGACGCCGACGTTGTCATCACCACCCCCTTCCACCCCGGCTACATCAACAAGGAGCGAATCGACAAGGCCAAGAAGCTCAAGATCTGCATCACCGCCGGAGTCGGCTCGGACCACGTTGATCTCGATGCTGCCAACGCTCGAGATATCGCTGTTCTGGAGGTCACTGGTTCTAATGTCCAATCCGTCGCTGAGCATGTTGTCATGACTATGCTCGTTCTGGTCCGAAACTTTGTCCCCGCCCACGAGCAGATCATTTCCGGCGGGTGGGACGTTGCGGCGGTCGCCAAGGACTCCTACGATCTAGAGGGTAAGGTCATCGGTACCGTGGGAGGCGGCCGAATCGGTCAGCGTGTCCTCAAGCGATGCAAGCCTTTCGACCCCATGGAAATGCTCTACTACGATTACCAGCCCATGCCTGCCGACGTCGAAGAGGAGATTGGCTGCCGACGAGTCGAGTCGCTCGAGCAAATGCTTTCTCTGTGTGATGTTGTCACTATCAACTGCCCTCTGCACGCCTCCACCAAGGGTCTCTTCAACAAGGAGCTCATCTCCCACATGAAGGATGGAGCCTGGCTCGTCAACACTGCTCGAGGAGCCATCTGCGTCACCGAGGACATTGTCGAGGCCCTAGAGTCCGGCAAAATCCGAGGATACGGAGGAGACGTCTGGTTCCCCCAGCCTGCCCCCAAGGACCACCCCTGGAGAACCATGCGAAACAATTACGGTGGTGGAAACGCCATGACTCCCCACATCTCCGGAACCTCCATTGATGCCCAGGGCCGATACGCTGAGGGTACCAAGAAGATCCTCGAGGTCTTTTTCTCGGGCAAGCAGGATTATCGACCCCAGGATATCATCTGTATCAACGGCCATTATGGTACCAAGGCCTACGGTGACGACAAAGAGCATAAGGAGCATCAGCTCAAGTAA
modifications: YALI0E15840g
Fold increase on induction (fold change expression of putative FDH genes upon induction with sodium formate): 5.7 fold
